The target of experiment [1] is T1, TM4SF19 in which 3HA was tagged at the N-terminus (human TM4SF19, NP_612470.2 isoform 1) (human, UniProt Q96DZ7 1-209).
T1 construct: also called 3HA-TM4SF19; TM4SF19 tagged with 3HA in N-terminus; not shown: 3HA tag at the N-terminus
T1 sequence: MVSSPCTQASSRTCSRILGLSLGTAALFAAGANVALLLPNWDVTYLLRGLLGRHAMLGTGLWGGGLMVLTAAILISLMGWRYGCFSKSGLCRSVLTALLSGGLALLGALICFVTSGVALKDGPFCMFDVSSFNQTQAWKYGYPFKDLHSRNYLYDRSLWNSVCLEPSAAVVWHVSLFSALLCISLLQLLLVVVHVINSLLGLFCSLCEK
The experiment in a line: immunoprecipitation, 3HA- and 3Flag-tagged TM4SF19 in 293T cells. An excerpt:
To confirm whether TM4SF19 is involved in cell-to-cell interactions, HA- or flag-tagged TM4SF19 was manufactured. TM4SF19 in which 3HA was tagged at the N-terminus, a wild-type in which 3Flag was tagged at the N-terminus, and a TM4SF19-deletion mutant were subjected to transient overexpression in 293T cells to confirm binding through immunoprecipitation.

The target of experiment [2] is T1, TM4SF19 in which 3HA was tagged at the …. The experiment in a line: immunoprecipitation, 293T cells. An excerpt:
In the same manner as described above, by the transient overexpression of TM4SF19 in which 3HA was tagged at the N-terminus, a wild-type in which 3Flag was tagged at the N-terminus, and a TM4SF19 deletion mutant in 293T cells, binding was confirmed through immunoprecipitation.

The source of these data is patent US20240132571A1 (MEDPACTO, published 2024).

B1: wild-type TM4SF19 in which 3Flag was tagged at the N-terminus (human TM4SF19) (other)
chain: MVSSPCTQASSRTCSRILGLSLGTAALFAAGANVALLLPNWDVTYLLRGLLGRHAMLGTGLWGGGLMVLTAAILISLMGWRYGCFSKSGLCRSVLTALLSGGLALLGALICFVTSGVALKDGPFCMFDVSSFNQTQAWKYGYPFKDLHSRNYLYDRSLWNSVCLEPSAAVVWHVSLFSALLCISLLQLLLVVVHVINSLLGLFCSLCEK
notes: Overexpressed in 293T cells (for the integrins: 293T or Raw 264.7 cells) and tested by immunoprecipitation; also called 3Flag-hTM4SF19; TM4SF19 wt; not shown: 3Flag tag at the N-terminus
As for B1, the binding result in experiment [1] is listed as “binds”.

B2: hTm4sf19 94-196 (only aa 94-196 of hTM4SF19 remains, other sequences deleted) (other)
chain: VLTALLSGGLALLGALICFVTSGVALKDGPFCMFDVSSFNQTQAWKYGYPFKDLHSRNYLYDRSLWNSVCLEPSAAVVWHVSLFSALLCISLLQLLLVVVHVI
notes: Expresses transmembrane 3, extracellular region 2 (EC2) and transmembrane 4 of TM4SF19; overexpressed in 293T cells; not shown: tag not expressly stated for this mutant (the other mutants carry 3Flag)
B2: the binding result in experiment [2] was “binds”.

B3: hTM4SF19 94-196Δ (3Flag-tagged deletion mutant lacking transmembrane 3, extracellular region 2 and transmembrane 4) (other)
chain: MVSSPCTQASSRTCSRILGLSLGTAALFAAGANVALLLPNWDVTYLLRGLLGRHAMLGTGLWGGGLMVLTAAILISLMGWRYGCFSKSGLCRSNSLLGLFCSLCEK
notes: the kept ranges are worked out from the printed deletion limits; not shown: 3Flag tag
In the case of B3, the binding result in experiment [2] is reported as “no binding”.
